Measurements taken from the domain aggregation screens of Martell et al. (2025).

Experiment: soluble fraction after stress (log2 fold change); higher = more stays soluble; pooled small domains, quantitative proteomics
Details: stress: pH 4
In short: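 Custom libraries of small protein domains were pooled and exposed to pH 4. High-throughput quantitative proteomics then measured the log2 fold change in the amount of each domain still soluble, with higher values meaning more stayed soluble. This soluble-fraction fold change stands for aggregation propensity.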

Row | Sequence | soluble fraction (log2)
1 | HMEHDTVLSKVFRRLREAHVPLSLDDIYQGLRKTVNNNSEIREKIVTLQERGLVAEILGPKGGKKYVAKPT | 0.199
2 | HMEHIEVDTSHIAVGSKVKHKAFGLGEITDKGNTYVFVKFDGQAIPKKFQFPGAFTQGFLTK | 0.154
3 | HMEHPNNTELTQKLELGTELMQYGDYNYALKVFNNVIDSDPEWSEAWNKRATVYFLMSQFTDSLSDIDRV | -0.17
4 | HMEIDMQEGIKTIILMMKEHNITPSEAMKIYKSANGDIHYISKIYNHFKNKGADNFVALMIKMVKPGEFIE | -0.398
5 | HMEIEETKKNSRTKIPENFDYKLINGLSNEIRAKLELIRPIDLLQASRIDGMTPAALTLVHLWIKKYSG | -0.419
6 | HMEIEIPEELQNKFAEIPELKTAFESLTPGRQRAYVLYFSQPKQSKTREARIEKYIPHILDGKGMN | 0.0591
7 | HMEIESAHAQVLGVREIAASGATQHWIAFRFSDGHQRELLATPSQADVIFRGQQGVVHFAGDRLTGWIPE | -0.198
8 | HMEIEYFDDEELDAYKGRKSDSYTDEEAAQFAEVLYTMRPSEVKDWTASLTLRGISMPDQIKDEAIMLME | -0.984
9 | HMEIGELITLYRKQAGLTIDELSEKANVPKGTLNKIIGGITKAPTLETMRSIAYALGKKLADFDN | 0.107
10 | HMEIHQVEFGGKVISFVLERKPVKNVNLHIKPDMTVMVSANEKVPLDFILGFVKQKAAWILKNIQFFEDV | -1.08
11 | HMEIKDQADAYGKMEPASAAAILSEMTNDLTLVAKILDSMQTSKSALILQNMKPTTAAQVTTKMTAMK | -0.11
12 | HMEILTRQLTHYLHLLPPAQQEVVRGVYLQDQTLQEIADRVQIPLGTVKSRLRLGLSKLREQIEQEHE | 0.291
13 | HMEIMELPEYVVRSGSGLDAFREKWDLWDQGLMYDLKDKRAVFPIFIDGVMIDAVGRALAGAEPKWLRYTG | -0.554
14 | HMEINEDEIYEKIMIEIEQDNKVKSTWAKALSQSDGNKDKAESLYISMRFEELKYHQSYQKEELNLKDNQQ | -0.989
15 | HMEIPRYRLIGADGGRMVDLGEGQGAIPPVDVKRGMIDMPGLGKGYYTADGKSAVITNADGSKTRVL | 0.304
16 | HMEIRNLMPILSHFLNENDIKLSRESVNLVLDRASGNRENLNNELKKIHDYSFSNKIIDFETIKKLTNLG | -0.215
17 | HMEISLAETLRSSLHMILGWYQNTGDKKLLELIRLHLQAYVNTGNSLNPEMEEIRAALETLGEGKEAFRP | -1.02
18 | HMEISNWLEEIGLSRYTETLSEFPLEDLVEFTDDDFKELGVLTPHRKKLLAAIATLNNDASSN | -1.12
19 | HMEISTEVPLRGGTISEEALEALNRLPGVTASNIDGKSISVDVADNAELRVSDINQVLAVHSPDTRV | -0.707

Row | Sequence | soluble fraction (log2)
20 | HMEITRDTVIQWLEAERRSQTWLSKQLGVSVQAVSNWLREKNPQTISASAQITIRALMEEDAAK | 0.00665
21 | HMEIVQVIAQNIQDLLDKHKISVSELSGYLGISRQTLTNYLKTTSTIDSVQLVKIADFFNIPAEYLLKDH | -0.659
22 | HMEIVSTEEKIKRAAEQVFLLRGLEGARMQEIADVAGINKAMLHYYFRNKETLFDVILSEKL | -1.14
23 | HMEIYEEDRTKVVNDLMDQILNRQITMDAAATKFINIRNSLGTTITKEDEQNLEMLRGLIFDKT | -1.17
24 | HMEIYIDGNKYVGELRNGKPNGRGTITYTGDGSKYVGEWKNGKRYGRGKMAYTNGTTKEGVWKDDEFLYAT | 0.377
25 | HMEKAKVPSVIGMTEANAKRTIRDAGFKVGRVTRVESEAYDKGKVIEQQYEAGSELEKKKPISIVVSKGKK | 0.152
26 | HMEKALEVKYQKMVELLGDQSTFYVDEVKKIFPEMKKSSLYWNMSKLVEGGYLRRIRNGVYAFNE | -0.124
27 | HMEKEKIKEALIGYFEAEPEEKFTVQELADKLKMNKAGQFNFVVQAVAQLEHDKVITLDDEGNFSLVRHE | -0.967
28 | HMEKERYDTGIGELNRVLGGGLVKGSLILISGDPGIGKSTLLLQTANNISKKYGKVLYVSGEESEEQIKIR | -0.722
29 | HMEKGWYKLGQDSYYVDDDGKIHKGWLELDGKKYYFDQEGKMVTGTVNIDGKDYTFNEKGELYVS | -0.029
30 | HMEKIELKTVIPENLKKKRLDFALSELFPEHSRSRIQSWIKEGSVMVNSKNYRQRDLVDAGDVVEINTEQK | 0.321
31 | HMEKIIGQIQINQRGNGYVIVPNVKDDIFVKRENLNSARQGDRVAVQLLSRPNQKPEGLVQEVLERGQ | 0.071
32 | HMEKILSYKALMNDAGKRIDQFLANNEKDISRTRIKSLILEGSLKLDNNIINDPSYKIKENDVFTLFIPEA | 0.0775
33 | HMEKIRIQKYLSERGVMSRRAADSALAEGRIAVNGVTARPGDKIDPSSDTLTIDGRIVTTGTAP | ≥ 0.43
34 | HMEKKEWVIYITGAVKKPGVYRIPEGARVYQALEAAGGFTPEADRDAVNLAAMLQDGAHIKFPAVGEEV | 0.0865
35 | HMEKLNYSISNEEQGQRIDKYLSLMIEGKSRSFIQGLIDDKKVMANGKVIKSNYKLKNNDEITVEMPDPI | 0.0918
36 | HMEKNILPDTSPEKQYEFATSFLKVGDYSTAERAFREFVINNSEHKLAGNAQYWYAETFRIRQ | 0.148
37 | HMEKSQIHLIHTRYVNPEQLVPILSMVIPAENIYVKSDSNLIIINGSSEMLREVESIVSKLDVPS | -0.687
38 | HMEKSSALRAKEAFMALYHDGKFKPGTKIPSESNMAELLGVSRETWRKALALLRGDGVLYSKHGSGTYLLE | -0.0262
